Assay results taken from patent publication US20190367589A1 (CYTOMX THERAPEUTICS, published 2019).

Tests used:
Test in all cases: phage ELISA, ligand coated
[1] = biological target: T1, human Jagged 1-Fc (extracellular domain of human Jagged 1 fused to the Fc portion of human IgG1); R&D Systems … (human, UniProt P78504 34-1067)
T1 construct: extracellular domain; Bought reagent; also called hJag1; h Jagged 1; not shown: Fc portion of human IgG1
Description: (§1) Jagged ligands were adsorbed to the wells of a 96-well ELISA plate, each ligand on a separate plate. Phage were applied to correlative wells on each plate and allowed to bind. Bound phage were visualized with an anti-M13-HRP conjugate and developed with the chromogenic substrate TMB. Also shown are the SEQ ID NOs for the each of these isolates.

[2] = biological target: T2, rat Jagged 1-Fc (R&D Systems Cat #599-JG-100) (rat, UniProt Q63722 34-1067, limits assumed)
T2 construct: Bought reagent; also called rJag1; rJAG1; not shown: Fc part
Description: as §1

[3] = biological target: T3, human Jagged 2-Fc (R&D Systems Cat #1726-JG-050) (human, UniProt Q9Y219 27-1080, limits assumed)
T3 construct: Bought reagent; also called hJag2; h Jagged 2; not shown: Fc part
T3 sequence (Q9Y219 27-1080 limits assumed): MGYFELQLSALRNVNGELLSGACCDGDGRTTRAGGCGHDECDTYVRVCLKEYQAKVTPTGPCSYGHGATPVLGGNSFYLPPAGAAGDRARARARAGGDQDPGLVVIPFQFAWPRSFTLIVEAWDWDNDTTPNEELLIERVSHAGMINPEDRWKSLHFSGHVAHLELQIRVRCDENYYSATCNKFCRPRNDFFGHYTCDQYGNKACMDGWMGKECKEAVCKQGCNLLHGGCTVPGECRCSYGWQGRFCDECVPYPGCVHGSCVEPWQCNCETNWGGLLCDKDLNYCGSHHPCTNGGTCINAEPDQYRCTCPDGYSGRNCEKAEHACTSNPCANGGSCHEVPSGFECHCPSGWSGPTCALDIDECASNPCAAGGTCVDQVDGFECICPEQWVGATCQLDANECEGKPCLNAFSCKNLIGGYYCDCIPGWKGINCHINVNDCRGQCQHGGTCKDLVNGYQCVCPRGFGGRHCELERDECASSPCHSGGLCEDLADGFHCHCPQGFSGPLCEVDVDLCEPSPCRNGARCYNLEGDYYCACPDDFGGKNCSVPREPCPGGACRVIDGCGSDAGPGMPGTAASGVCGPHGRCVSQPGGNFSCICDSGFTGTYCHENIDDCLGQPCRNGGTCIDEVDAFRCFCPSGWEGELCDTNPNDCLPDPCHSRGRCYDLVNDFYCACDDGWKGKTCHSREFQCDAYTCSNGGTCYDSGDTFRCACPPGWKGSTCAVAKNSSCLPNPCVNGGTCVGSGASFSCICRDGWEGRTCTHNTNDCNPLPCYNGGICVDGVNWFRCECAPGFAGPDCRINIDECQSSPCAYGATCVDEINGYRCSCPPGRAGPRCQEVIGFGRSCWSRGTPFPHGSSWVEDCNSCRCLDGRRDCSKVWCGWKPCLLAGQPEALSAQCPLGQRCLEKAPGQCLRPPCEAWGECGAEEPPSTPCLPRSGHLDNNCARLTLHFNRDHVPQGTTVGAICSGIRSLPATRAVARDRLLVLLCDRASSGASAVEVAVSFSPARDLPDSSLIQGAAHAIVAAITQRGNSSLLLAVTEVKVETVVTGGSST
Description: as §1

Row | binding result [1] | binding result [2] | binding result [3] | Binder
1 | binds | binds | – | 346.8 (Fab, V domains shown, also called Lc8/Hc8) VH: EVQLLESGGGLVQPGGSLRLSCAASGFTFSSYAMSWVRQAPGKGLEWVSSIEQMGWQTYYADSVKGRFTISRDNSKNTLYLQMNSLRAEDTAVYYCAKHIGRTNPFDYWGQGTLVTVSS VL: DIQMTQSPSSLSASVGDRVTITCRASQSISSYLNWYQQKPGKAPKLLIYAASSLQSGVPSRFSGSGSGTDFTLTISSLQPEDFATYYCQQSVVAPLTFGQGTKVEIKR
2 | binds | – | binds | 346.24 (Fab, V domains shown, also called Lc24/Hc24) VH: EVQLLESGGGLVQPGGSLRLSCAASGFTFSSYAMSWVRQAPGKGLEWVSSIEEMGWQTLYADSVKGRFTISRDNSKNTLYLQMNSLRAEDTAVYYCAKSAAAFDYWGQGTLVTVSS VL: DIQMTQSPSSLSASVGDRVTITCRASQSISSYLNWYQQKPGKAPKLLIYAASSLQSGVPSRFSGSGSGTDFTLTISSLQPEDFATYYCQQSVVAPLTFGQGTKVEIKR
